In patent US20210403584A1 (ARMAGEN, published 2021):
Blank lines part the entries; values can stand above or below the molecule they belong to.

Experiments:
[1] = target: human insulin receptor extracellular domain (HIR ECD) (human) (UniProt P06213); test: ELISA, HIR ECD plated; against the HIR Ab
[2] = target: T1, human insulin receptor extracellular domain (HIR ECD) (human, UniProt P06213 28-956, limits assumed); test: ELISA, recombinant HIR ECD plated, secondary antibody and alkaline phosphatase detection
T1 construct: extracellular domain
Procedure: The potency of the CHO-derived fusion protein was assessed with the HIR ECD binding ELISA. The affinity of the fusion protein for the HIR extracellular domain (ECD) was determined with an ELISA. Recombinant HIR ECD was plated on Nunc-Maxisorb 96 well dishes and the binding of the HIR Ab, or the HIR Ab-GLB1 fusion protein, to the HIR ECD was detected with a secondary antibody, followed by binding with an alkaline phosphatase detector reagent. […] The MW of the HIR Ab is 150 kDa, and the MW of the HIR Ab-fusion protein is 334 kDa.

binding activity lost [1]: > 95%
Molecule: GUSB-HIR Ab fusion protein (GUSB fused to the amino terminus of the HIR Ab heavy chain) (from UniProt P08236 23-633)

EC50 [2]: 0.037 µg/mL
B1: chimeric HIR Ab (human insulin receptor antibody) (antibody, human IgG1, kappa, V domains shown)
VH: QVQLQQSGPELVKPGALVKISCKASGYTFTNYDIHWVKQRPGQGLEWIGWIYPGDGSTKYNEKFKGKATLTADKSSSTAYMHLSSLTSEKSAVYFCAREWAYWGQGTLVTVSA
VL: DIQMTQSPSSLSASLGERVSLTCRASQDIGGNLYWLQQGPDGTIKRLIYATSSLDSGVPKRFSGSRSGSDYSLTISSLESEDFVDYYCLQYSSSPWTFGGGTKMEIKR
notes: Chimeric antibody against the extracellular domain of the human insulin receptor; human IgG1/kappa constant regions; also called HIRMAb; HIR MAb
